This experiment concerns the target recombinant human CD16A (48R/158F) expressed on the surface of CHO cells (human) (UniProt P08637). Put plainly: flow cytometry, CHO-huCD16A cells, apparent KD; SD 62.5. On the technique in general: Flow cytometry measures light scatter and fluorescence of single cells or particles in a stream.

B1: 2scDb-AFc-3 (protein)
chain 1: EVQLQQSGPELVKPGASVKMSCKASGYTFTDYVINWGKQRSGQGLEWIGEIYPGSGTNYYNEKFKAKATLTADKSSNIAYMQLSSLTSEDSAVYFCARRGRYGLYAMDYWGQGTSVTVSSGGSGGSGGSDIVMTQSPATLSLSPGERATLSCRSSKSLQNVNGNTYLYWFQQKPGQSPQLLIYRMSNLNSGVPDRFSGSGSGTEFTLTISSLEPEDFAVYYCMQHLEYPITFGAGTKLEIKGGSGGSGGSGGSGGSGGSGGSEVQLVESGGGLVKPGGSLKLSCAASGYTFTSYVMHWVRQAPGKGLEWIGYINPYNDGTKYNEKFQGRVTISSDKSISTAYMELSSLRSEDTAMYYCARGTYYYGTRVFDYWGQGTLVTVSSGGSGGSGGSDIQMTQTTSSLSASLGDRVTISCRASQDISNYLNWYQQKPDGTVKLLIYYTSRLHSGVPSRFSGSGSGTDYSLTINNLEQEDIATYFCQQGNTRPWTFGGGTKLEIKDKTHTCPPCPAPEFEGGPSVFLFPPKPKDTLMISRTPEVTCVVVAVSHEDPEVKFNWYVDGVEVHNAKTKPREEQYGSTYRVVSVLTVLHQDWLNGKEYKCKVSNKALPAPIEKTISKAKGQPREPQVYTLPPSREEMTKNQVSLWCLVKGFYPSDIAVEWESNGQPENNYKTTPPVLDSDGSFFLYSKLTVDKSRWQQGNVFSCSVMHEALHNHYTQKSLSLSPG
chain 2: EVQLVQSGAEVKKPGASVKVSCKASGYTFTNYYMQWVRQAPGQCLEWMGIINPSGGVTSYAQKFQGRVTMTRDTSTSTVYMELSSLRSEDTAVYYCARGSAYYYDFADYWGQGTLVTVSSGGSGGSGGSDIVMTQSPATLSLSPGERATLSCRSSKSLQNVNGNTYLYWFQQKPGQSPQLLIYRMSNLNSGVPDRFSGSGSGTEFTLTISSLEPEDFAVYYCMQHLEYPITFGAGTKLEIKGGSGGSGGSGGSGGSGGSGGSEVQLVESGGGLVKPGGSLKLSCAASGYTFTSYVMHWVRQAPGKGLEWIGYINPYNDGTKYNEKFQGRVTISSDKSISTAYMELSSLRSEDTAMYYCARGTYYYGTRVFDYWGQGTLVTVSSGGSGGSGGSSYELTQPLSVSVALGQTARITCGGNNIGSKSVHWYQQKPGQAPVLVIYQDKKRPSGIPERFSGSNSGNTATLTISRAQAGDEADYYCQVWDDYIVLFGCGTKLTVLDKTHTCPPCPAPEFEGGPSVFLFPPKPKDTLMISRTPEVTCVVVAVSHEDPEVKFNWYVDGVEVHNAKTKPREEQYGSTYRVVSVLTVLHQDWLNGKEYKCKVSNKALPAPIEKTISKAKGQPREPQVYTLPPSREEMTKNQVSLSCAVKGFYPSDIAVEWESNGQPENNYKTTPPVLDSDGSFFLVSKLTVDKSRWQQGNVFSCSVMHEALHNHYTQKSLSLSPG
In the case of B1, the Kd is 528 nM.

These data come from patent US20230365709A1.
